Experimental data as given in paper PMC11041685, “Emergence of fractal geometries in the evolution of a metabolic enzyme” (Nature, 2024).
“And” between values parts separate entries of the source, which are not always exact repeats. Equal entries are not always repeated. Blank lines part the entries; values can stand above or below the molecule they belong to.

Assays:
[1] = biological target: D147A SeCS (Synechococcus elongatus PCC 7942); assay: native MS; 200 mM ammonium acetate, positive-ion nanoelectrospray; D147A at 20 µM, D147A + L18Q at 35 µM
[2] = biological target: D147A SeCS (Synechococcus elongatus PCC 7942); assay: as above; remark: listed apart in the source
[3] = biological target: D147A SeCS (Synechococcus elongatus PCC 7942); assay: mass photometry; 50 nM protein unless stated otherwise, in PBS or 20 mM Tris, 200 mM NaCl pH 7.5; masses of the complexes in solution, fraction of CS subunits in each oligomeric state
[4] = biological target: H369R SeCS (Synechococcus elongatus PCC 7942); assay: cryo-EM structure; 22.5 µM protein on Quantifoil 2/1 grids
[5] = biological target: H369R SeCS (Synechococcus elongatus PCC 7942); assay: as above; remark: listed apart in the source
[6] = biological target: H369R SeCS (Synechococcus elongatus PCC 7942); assay: negative-stain electron microscopy; 450 nM protein on carbon-coated copper grids, 2% uranyl acetate; 2D class averages and manual particle counts
[7] = biological target: H369R SeCS (Synechococcus elongatus PCC 7942); assay: mass photometry; 50 nM protein unless stated otherwise, in PBS or 20 mM Tris, 200 mM NaCl pH 7.5; masses of the complexes in solution, fraction of CS subunits in each oligomeric state
[8] = biological target: SeCS D147A + L18Q (Synechococcus elongatus PCC 7942); assay: native MS; 200 mM ammonium acetate, positive-ion nanoelectrospray; D147A at 20 µM, D147A + L18Q at 35 µM
[9] = biological target: SeCS D147A + L18Q (Synechococcus elongatus PCC 7942); assay: mass photometry; 50 nM protein unless stated otherwise, in PBS or 20 mM Tris, 200 mM NaCl pH 7.5; masses of the complexes in solution, fraction of CS subunits in each oligomeric state
[10] = biological target: SeCS L18Q (Synechococcus elongatus PCC 7942); assay: negative-stain electron microscopy; 450 nM protein on carbon-coated copper grids, 2% uranyl acetate; 2D class averages and manual particle counts
[11] = biological target: SeCS L18Q (Synechococcus elongatus PCC 7942); assay: SAXS; dilution series from the highest concentration, 25 mM Tris-HCl pH 7.5, 200 mM NaCl, 20 °C; Rg by Guinier approximation against Rg of models of the 6mer, 18mer and 54mer
[12] = biological target: SeCS L18Q (Synechococcus elongatus PCC 7942); assay: mass photometry; 50 nM protein unless stated otherwise, in PBS or 20 mM Tris, 200 mM NaCl pH 7.5; masses of the complexes in solution, fraction of CS subunits in each oligomeric state
[13] = biological target: citrate synthase from Cyanobium sp. PCC7001 (Cyanobium sp. PCC7001); assay: as above
[14] = biological target: citrate synthase from Planktothrix mougeotii (Planktothrix mougeotii); assay: as above
[15] = biological target: citrate synthase from Synechococcus elongatus PCC 7942 (Synechococcus elongatus PCC 7942); assay: cryo-EM structure; 22.5 µM protein on Quantifoil 2/1 grids
[16] = biological target: citrate synthase from Synechococcus elongatus PCC 7942 (Synechococcus elongatus PCC 7942); assay: mass photometry; pH titration, 20 mM Tris, 200 mM NaCl pH 7–9.5, 50 nM protein
[17] = biological target: citrate synthase from Synechococcus elongatus PCC 7942 (Synechococcus elongatus PCC 7942); assay: crystal structure; 250 µM protein incubated with 5 mM acetyl-CoA; 0.1 M citrate pH 5.5, 2.0 M ammonium sulfate, 20 °C; citrate-bound
[18] = biological target: citrate synthase from Synechococcus elongatus PCC 7942 (Synechococcus elongatus PCC 7942); assay: negative-stain electron microscopy; 450 nM protein on carbon-coated copper grids, 2% uranyl acetate; 2D class averages and manual particle counts
[19] = biological target: citrate synthase from Synechococcus elongatus PCC 7942 (Synechococcus elongatus PCC 7942); assay: mass photometry; with acetyl-CoA, oxaloacetate or citrate: protein incubated 10 min with the substrate, same substrate concentration in the buffer; cys4 after oxidation
[20] = biological target: citrate synthase from Synechococcus elongatus PCC 7942 (Synechococcus elongatus PCC 7942); assay: SAXS; dilution series from the highest concentration, 25 mM Tris-HCl pH 7.5, 200 mM NaCl, 20 °C; Rg by Guinier approximation against Rg of models of the 6mer, 18mer and 54mer
[21] = biological target: citrate synthase from Synechococcus elongatus PCC 7942 (Synechococcus elongatus PCC 7942); assay: mass photometry; 50 nM protein unless stated otherwise, in PBS or 20 mM Tris, 200 mM NaCl pH 7.5; masses of the complexes in solution, fraction of CS subunits in each oligomeric state
[22] = biological target: Δ2–6 SeCS (Synechococcus elongatus PCC 7942); assay: cryo-EM structure; 22.5 µM protein on Quantifoil 2/1 grids
[23] = biological target: Δ2–6 SeCS (Synechococcus elongatus PCC 7942); assay: mass photometry; 50 nM protein unless stated otherwise, in PBS or 20 mM Tris, 200 mM NaCl pH 7.5; masses of the complexes in solution, fraction of CS subunits in each oligomeric state
purified protein [24] = substrate: CC(=O)SCCNC(=O)CCNC(=O)[C@H](O)C(C)(C)COP(=O)(O)OP(=O)(O)OC[C@H]1O[C@@H](n2cnc3c(N)ncnc32)[C@H](O)[C@@H]1OP(=O)(O)O; assay: purified protein; assay type: biochemical, Synechococcus elongatus; settings: 1 mM oxaloacetate, 50 mM Tris pH 7.5, 10 mM KCl, 25 nM protein, 25 °C
purified protein [25] = substrate: O=C(O)CC(=O)C(=O)O; assay: purified protein; assay type: biochemical, Synechococcus elongatus; settings: 0.5 mM acetyl-CoA, 50 mM Tris pH 7.5, 10 mM KCl, 25 nM protein, 25 °C

Molecule: SeCS D147A + L18Q (enzyme)
stoichiometry N [8]: 2 subunits and 6 subunits
stoichiometry N [9]: 2 subunits

Molecule: SeCS L18Q (enzyme)
stoichiometry N [10]: 6 subunits
stoichiometry N [11]: 6 subunits
stoichiometry N [12]: 6 subunits

Molecule: citrate synthase from Cyanobium sp. PCC7001 (enzyme)
stoichiometry N [13]: 2 subunits

B1: SeCS (CS of S. elongatus PCC 7942) (Synechococcus elongatus PCC 7942 = FACHB-805) (protein)
chain: MTAVSEFRPGLEGVPATLSSISFVDGQRGVLEYRGISIEQLAQQSSFLETAYLLIWGHLPTQQELTEFEHEIRYHRRIKFRIRDMMKCFPDSGHPMDALQASAAALGLFYSRRALDDPEYIRAAVVRLLAKIPTMVAAFQLIRKGNDPIQPRDELDYAANFLYMLTEREPDPVAARIFDICLTLHAEHTINASTFSAMVTASTLTDPYAVVASAVGTLAGPLHGGANEEVLDMLEAIGSVENVEPYLDHCIATKTRIMGFGHRVYKVKDPRAVILQNLAEQLFDIFGHDPYYEIAVAVEKAAAERLSHKGIYPNVDFYSGLVYRKLGIPSDLFTPVFAIARVAGWLAHWKEQLNENRIFRPTQIYTGSHNLDYTPIADRDLAIESD
notes: full length, C-terminal His tag (LE-HHHHHH) kept, E. coli BL21 (DE3); 18mer, active as homohexamer
Km (purified protein [24]): 91.8 ± 9.2 µM
kcat (purified protein [24]): 24.2 ± 1.3 s⁻¹
Km (purified protein [25]): 65.6 ± 10.6 µM
kcat (purified protein [25]): 19.5 ± 1.7 s⁻¹

The next lines start with the values.

stoichiometry N [1]: 4 subunits and 6 subunits
stoichiometry N [2]: > 8 subunits
stoichiometry N [3]: 2 subunits
Molecule: D147A SeCS (enzyme)

stoichiometry N [4]: 18 subunits
stoichiometry N [5]: 54 subunits
stoichiometry N [6]: 18 subunits and 54 subunits
stoichiometry N [7]: 18 subunits
Molecule: H369R SeCS (enzyme)

stoichiometry N [14]: 18 subunits
Molecule: citrate synthase from Planktothrix mougeotii (enzyme)

stoichiometry N [15]: 18 subunits
stoichiometry N [16]: 6 subunits
stoichiometry N [17]: 6 subunits
stoichiometry N [18]: 18 subunits and 36 subunits and 54 subunits
stoichiometry N [19]: 6 subunits
stoichiometry N [20]: > 54 subunits
stoichiometry N [21]: 18 subunits
Molecule: citrate synthase from Synechococcus elongatus PCC 7942 (enzyme)

stoichiometry N [22]: 6 subunits
stoichiometry N [23]: 6 subunits
Molecule: Δ2–6 SeCS (enzyme)
